# Results reported in patent US20250295772A1 (ABATA THERAPEUTICS, published 2025).
# T1: preproinsulin 73-90 peptide complexed with HLA-DRB1*04:01 (human, UniProt P01903 26-254; P01911 30-266)
# T1 MHC II alpha: not shown
# T1 MHC II beta: not shown
# T1 peptide: GAGSLQPLALEGSLQKRG
# Molecular target: T1, preproinsulin 73-90 peptide complexed …
# Test: cell-based or functional assay
row,Binder,"EC50 (nM) of CD69 upregulation, conventional CD4+ T cells + BLS-DRB1*04:01 cells, peptide titrated [nM]"
1,"TCR-S DS (TCR, V domains shown) V domain 1: QKEVEQDPGPLSVPEGAIVSLNCTYSNSAFQYFMWYRQYSRKGPELLMYTYSSGNKEDGRFTAQVDKSSKYISLFIRDSQPSDSATYLCAMSEYSGYALNFGKGTSLLVTP V domain 2: GITQSPKYLFRKEGQNVTLSCEQNLNHDAMYWYRQDPGQGLRLIYYSQIVNDFQKGDIAEGYSVSREKKESFPLTVTSAQKNPTAFYLCASSNRDEQYFGPGTRLTVTE",10000
2,"TCR-L (TCR, V domains shown) V domain 1: RKEVEQDPGPFNVPEGATVAFNCTYSNSASQSFFWYRQDCRKEPKLLMSVYSSGNEDGRFTAQLNRASQYISLLIRDSKLSDSATYLCVVLRNSGNTPLVFGKGTRLSVIA V domain 2: DAGITQSPRHKVTETGTPVTLRCHQTENHRYMYWYRQDPGHGLRLIHYSYGVKDTDKGEVSDGYSVSRSKTEDFLLTLESATSSQTSVYFCAIKPGQGNRGEQFFGPGTRLTVLE",498
3,"TCR-N (TCR, V domains shown) V domain 1: GESVGLHLPTLSVQEGDNSIINCAYSNSASDYFIWYKQESGKGPQFIIDIRSNMDKRQGQRVTVLLNKTVKHLSLQIAATQPGDSAVYFCAEISKTSYDKVIFGPGTSLSVIP V domain 2: NAGVTQTPKFRILKIGQSMTLQCAQDMNHNYMYWYRQDPGMGLKLIYYSVGAGITDKGEVPNGYNVSRSTTEDFPLRLELAAPSQTSVYFCASSYGPGGRNTIYFGEGSWLTVVE",28.2
4,TCR-K (TCR) TCR alpha: RGNGKNQVEQSPQSLIILEGKNCTLQCNYTVSPFSNLRWYKQDTGRGPVSLTIMTFSENTKSNGRYTATLDADTKQSSLHITASQLSDSASYICVVSASSNTGKLIFGQGTTLQVKPDIQNPDPAVYQLRDSKSSDKSVCLFTDFDSQTNVSQSKDSDVYITDKTVLDMRSMDFKSNSAVAWSNKSDFACANAFNNSIIPEDTFFPSPESSCDVKLVEKSFETDTNLNFQNLSVIGFRILLLKVAGFNLLMTLRLWSS TCR beta: DAGVIQSPRHEVTEMGQEVTLRCKPISGHNSLFWYRQTMMRGLELLIYFNNNVPIDDSGMPEDRFSAKMPNASFSTLKIQPSEPRDSAVYFCASSGQLVAYNEQFFGPGTRLTVLEDLKNVFPPEVAVFEPSEAEISHTQKATLVCLATGFYPDHVELSWWVNGKEVHSGVSTDPQPLKEQPALNDSRYCLSSRLRVSATFWQNPRNHFRCQVQFYGLSENDEWTQDRAKPVTQIVSAEAWGRADCGFTSESYQQGVLSATILYEILLGKATLYAVLVSALVLMAMVKRKDSRG,47.7
5,TCR-K DS (TCR) TCR alpha: RGNGKNQVEQSPQSLIILEGKNCTLQCNYTVSPFSNLRWYKQDTGRGPVSLTIMTFSENTKSNGRYTATLDADTKQSSLHITASQLSDSASYICVVSASSNTGKLIFGQGTTLQVKPDIQNPDPAVYQLRDSKSSDKSVCLFTDFDSQTNVSQSKDSDVYITDKCVLDMRSMDFKSNSAVAWSNKSDFACANAFNNSIIPEDTFFPSPESSCDVKLVEKSFETDTNLNFQNLSVIGFRILLLKVAGFNLLMTLRLWSS TCR beta: DAGVIQSPRHEVTEMGQEVTLRCKPISGHNSLFWYRQTMMRGLELLIYFNNNVPIDDSGMPEDRFSAKMPNASFSTLKIQPSEPRDSAVYFCASSGQLVAYNEQFFGPGTRLTVLEDLKNVFPPEVAVFEPSEAEISHTQKATLVCLATGFYPDHVELSWWVNGKEVHSGVCTDPQPLKEQPALNDSRYCLSSRLRVSATFWQNPRNHFRCQVQFYGLSENDEWTQDRAKPVTQIVSAEAWGRADCGFTSESYQQGVLSATILYEILLGKATLYAVLVSALVLMAMVKRKDSRG,19.1
6,"TCR-M (TCR, V domains shown) V domain 1: DQQVKQNSPSLSVQEGRISILNCDYTNSMFDYFLWYKKYPAEGPTFLISISSIKDKNEDGRFTVFLNKSAKHLSLHIVPSQPGDSAVYFCAASAKTSGSRLTFGEGTQLTVNP V domain 2: NAGVTQTPKFRILKIGQSMTLQCTQDMNHNYMYWYRQDPGMGLKLIYYSVGAGITDKGEVPNGYNVSRSTTEDFPLRLELAAPSQTSVYFCASRGGIQETQYFGPGTRLLVLE",244
7,"TCR-Q (TCR, V domains shown) V domain 1: KDQVFQPSTVASSEGAVVEIFCNHSVSNAYNFFWYLHFPGCAPRLLVKGSKPSQQGRYNMTYERFSSSLLILQVREADAAVYYCAVGDTGGFKTIFGAGTRLFVKA V domain 2: DSGVTQTPKHLITATGQRVTLRCSPRSGDLSVYWYQQSLDQGLQFLIHYYNGEERAKGNILERFSAQQFPDLHSELNLSSLELGDSALYFCASSEIAGFSTDTQYFGPGTRLTVLE",409
8,"TCR-O (TCR, V domains shown) V domain 1: KQEVTQIPAALSVPEGENLVLNCSFTDSAIYNLQWFRQDPGKGLTSLLLIQSSQREQTSGRLNASLDKSSGRSTLYIAASQPGDSATYLCAVTGMDSSYKLIFGSGTRLLVRP V domain 2: DAEITQSPRHKITETGRQVTLACHQTWNHNNMFWYRQDLGHGLRLIHYSYGVHDTNKGEVSDGYSVSRSNTEDLPLTLESAASSQTSVYFCASSEGGSWGYTFGSGTRLTVVE",6.34
